We go through one substance from PMC10442425.

pKd: −log10 of the molar value.

This assay has as its target recombinant SARS-CoV-2 envelope (E) protein, His-tagged (SARS-CoV-2) (UniProt P0DTC4). Put plainly: SPR; Biacore 8K, 25 °C, PBS-P buffer; His-tagged E protein captured on NTA chip; recombinant human CD36 injected at 400 nM to 12.5 nM, parallel kinetics; 1:1 binding model. A general note: In SPR one partner is held on a chip, and binding of the other changes the refractive index at the surface.

“recombinant human CD36 protein (from UniProt P16671 1-472) (receptor)”: the pKd is 7.26.

The pKd is the negative decadic logarithm of the Kd, by convention in mol/L.
